From PMC3435397

Experiments:
[1] = molecular target: B. subtilis S72N TRAP (trp RNA-binding attenuation protein, S72N mutant) (B. subtilis) (UniProt P19466); test: crystal structure; hanging drop vapor diffusion at 18°C; protein in 10 mM triethanolamine pH 8.0, 100 mM NaCl, 15 mM L-tryptophan, 33.5 mg/ml; six subunits in the asymmetric unit, 12-mer generated by the crystallographic 2-fold axis of P2(1)2(1)2
[2] = molecular target: B. subtilis S72N TRAP (trp RNA-binding attenuation protein, S72N mutant) (B. subtilis) (UniProt P19466); test: native MS; nanoflow electrospray of purified S72N TRAP picked by SEC (elution volume less than 14.5 ml); methods in Text S1

Substance: B. subtilis S72N TRAP (trp RNA-binding attenuation protein, S72N mutant) (from UniProt P19466 1-71) (natural protein)
- stoichiometry N [1]: 12
- stoichiometry N [2]: 12
